Laboratory results published in patent US20230355720A1, “PHARMACEUTICAL COMPOSITION FOR PREVENTING OR TREATING BONE DISEASES, COMPRISING TRIPLE AGONIST OR CONJUGATE THEREOF HAVING ACTIVITY WITH RESPECT TO ALL OF GLUCAGON, GLP-1 AND GLP RECEPTORS” (HANMI PHARM. CO., LTD., priority 2020, published 2023).
Bridge positions count the residues as written; N and C are the ends. Square brackets hold non-standard residues; d marks the D form. Ends that are not written are not given here. * marks the point of attachment. Acetyl(2-(4-imidazolyl)) = O=C(Cc1c[nH]cn1)*; Aib = CC(C)(N)C(=O)O

T1: human GIP receptor (human, UniProt P48546 22-466)
T1 sequence (looked up): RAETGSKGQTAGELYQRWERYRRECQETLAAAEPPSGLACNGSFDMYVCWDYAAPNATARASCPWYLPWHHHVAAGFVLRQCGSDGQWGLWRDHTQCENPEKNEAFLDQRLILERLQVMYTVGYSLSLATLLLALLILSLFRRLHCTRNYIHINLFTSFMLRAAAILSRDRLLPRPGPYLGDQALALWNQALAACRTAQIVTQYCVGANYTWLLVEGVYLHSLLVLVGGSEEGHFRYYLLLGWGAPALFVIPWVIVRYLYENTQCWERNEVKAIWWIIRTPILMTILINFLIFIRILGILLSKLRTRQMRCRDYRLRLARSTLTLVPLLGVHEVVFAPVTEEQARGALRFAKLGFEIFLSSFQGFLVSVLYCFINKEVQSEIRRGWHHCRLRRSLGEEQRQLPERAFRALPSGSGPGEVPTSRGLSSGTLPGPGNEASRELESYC


How the values were obtained:
Experiment in all cases: cell-based or functional assay
[1] = target: T1, human GIP receptor
[2] = target: human GLP-1 receptor (human, UniProt P43220 24-463)
[3] = target: human GCG receptor (human, UniProt P47871 26-477)
Sequence of human GCG receptor (P47871 26-477): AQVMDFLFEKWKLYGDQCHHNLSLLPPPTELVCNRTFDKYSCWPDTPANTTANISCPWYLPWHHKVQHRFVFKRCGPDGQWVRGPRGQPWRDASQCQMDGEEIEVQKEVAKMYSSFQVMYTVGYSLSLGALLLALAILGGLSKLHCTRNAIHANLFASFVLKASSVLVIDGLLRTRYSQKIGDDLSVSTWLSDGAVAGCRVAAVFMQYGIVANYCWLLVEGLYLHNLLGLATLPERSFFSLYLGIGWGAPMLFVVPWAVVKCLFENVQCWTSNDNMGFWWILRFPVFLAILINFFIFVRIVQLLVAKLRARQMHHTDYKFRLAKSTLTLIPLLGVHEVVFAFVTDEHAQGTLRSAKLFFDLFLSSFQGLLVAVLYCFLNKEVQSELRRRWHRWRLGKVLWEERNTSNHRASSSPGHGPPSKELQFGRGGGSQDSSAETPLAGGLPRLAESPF

Binder	In vitro activity (%) compared with native peptide, vs GIP [1] [%]	In vitro activity (%) compared with native peptide, vs GLP-1 [2] [%]	In vitro activity (%) compared with native peptide, vs Glucagon [3] [%]
[Acetyl(2-(4-imidazolyl))]GQGTFTSDYSIQLDEIAVRDFVEWLKNGGPSSGAPPPSHG (not fully specified) [triple agonist of SEQ ID NO: 14]	< 0.1	28	< 0.1
[Acetyl(2-(4-imidazolyl))]GQGTFTSDLSKQMDSEAQQLFIEWLKNGGPSSGAPPPSHG (not fully specified) [triple agonist of SEQ ID NO: 16]	< 0.1	2.1	< 0.1
[Acetyl(2-(4-imidazolyl))]GQGTFTSDLSKQMDEERAREFIEWLLAQKPSSGAPPPSHG (not fully specified) [triple agonist of SEQ ID NO: 17]	< 0.1	0.2	< 0.1
[Acetyl(2-(4-imidazolyl))]GQGTFTSDLSKQMDSERAREFIEWLKNTGPSSGAPPPSHG (not fully specified) [triple agonist of SEQ ID NO: 18]	< 0.1	< 0.1	< 0.1
[Acetyl(2-(4-imidazolyl))]GQGTFTSDLSIQYDSEHQRDFIEWLKDTGPSSGAPPPSHG (not fully specified) [triple agonist of SEQ ID NO: 19]	< 0.1	< 0.1	< 0.1
[Acetyl(2-(4-imidazolyl))]GQGTFTSDLSIQYEEEAQQDFVEWLKDTGPSSGAPPPSHG (not fully specified) [triple agonist of SEQ ID NO: 20]	< 0.1	< 0.1	< 0.1
Y[Aib]QGTFTSDYSKYLDECRAKEFVQWLLDHHPSSGQPPPS (bridge 16-20) [triple agonist of SEQ ID NO: 21]	22.7	17.8	267
Y[Aib]QGTFTSDYSKCLDEKRAKEFVQWLLDHHPSSGQPPPS (bridge 16-20) [triple agonist of SEQ ID NO: 22]	59.7	20.1	140
Y[Aib]QGTFTSDYSKYLDECRAKEFVQWLLAQKGKKNDWKHNIT (bridge 16-20; not fully specified) [triple agonist of SEQ ID NO: 23]	< 0.1	4.01	9.3
H[Aib]QGTFTSDVSSYLLGQAAKQFIAWLVKGGGPSSGAPPPSC (not fully specified) [triple agonist of SEQ ID NO: 3]	< 0.1	1.8	< 0.1
Y[Aib]QGTFTSDYSKYLDECRAKEFVQWLKNGGPSSGAPPPS (bridge 16-20) [triple agonist of SEQ ID NO: 24]	< 0.1	41.2	9.3
H[Aib]QGTFTSDCSKYLDERAAQDFVQWLLDGGPSSGAPPPS (not fully specified) [triple agonist of SEQ ID NO: 25]	< 0.1	82.6	0.1
H[Aib]QGTFTSDCSKYLDSRAAQDFVQWLLDGGPSSGAPPPS (not fully specified) [triple agonist of SEQ ID NO: 26]	< 0.1	64.5	0.2
H[Aib]QGTFTSDYSKYLDERACQDFVQWLLDQGGPSSGAPPPS (not fully specified) [triple agonist of SEQ ID NO: 27]	0.9	83.1	0.8
H[Aib]QGTFTSDYSKYLDEKRAQEFVCWLLAQKGKKNDWKHNIT (not fully specified) [triple agonist of SEQ ID NO: 28]	< 0.1	17.2	1.6
H[Aib]QGTFTSDYSKYLDEKAAKEFVQWLLNTC (bridge 16-20; not fully specified) [triple agonist of SEQ ID NO: 29]	< 0.1	38.5	6
H[Aib]QGTFTSDYSKYLDEKACKEFVQWLLAQ (bridge 16-20) [triple agonist of SEQ ID NO: 31]	2.4	135	2.2
H[Aib]QGTFTSDYSKYLDEKACKDFVQWLLDGGPSSGAPPPS (bridge 16-20; not fully specified) [triple agonist of SEQ ID NO: 32]	8.8	151	1.7
H[Aib]QGTFTSDYSIAMDEIHQKDFVNWLLAQKC (bridge 16-20; not fully specified) [triple agonist of SEQ ID NO: 33]	10.4	24.5	< 0.1
